From patent US20110300138A1 (published 2011)

Legend:
[1] = biological target: human TSH receptor (wild type), expressed on transfected CHO cells (human) (UniProt P16473); assay: cell-based or functional assay
[2] = biological target: human TSH receptor (full length, wild type) expressed on CHO cells (human) (UniProt P16473); assay: cell-based or functional assay
[3] = biological target: human TSHR expressed in CHO cells (human) (UniProt P16473); assay: cell-based or functional assay
[4] = biological target: human TSH receptor (full length, wild type) expressed in CHO cells (human) (UniProt P16473); assay: cell-based or functional assay
[5] = biological target: human TSHR (wild type, full length) expressed in CHO cells (human) (UniProt P16473); assay: cell-based or functional assay
TSHR260-AP (human) [6] = assay: TSHR260-AP bridge ELISA (full length TSHR on wells, TSHR260-AP in solution); IgG 250 µg/mL diluted in assay buffer
TSHR260-AP (human) [7] = assay: TSHR260-AP bridge ELISA (full length TSHR on wells, TSHR260-AP in solution); IgG 0.01 µg/mL diluted in assay buffer

B1: 5C9 IgG (antibody, from another filing, V domains shown)
VH: EVQLVESGGGLIQPGGSLRLSCAASGFTVSSNYMSWVRQAPGKGLEWVSVTYSGGSTSYADSVKGRFTISRDNSKNTLYLQMNSLRAEDTAVYYCARGGRYCSSISCYARSGCDYWGQGTLVTVSS
VL: AIQMTQSPSSLSASVGDRVTITCRASQSISNYLNWYQQKPGKAPKLLIYAASSLQSGVPSRFSGSGSGTDFTLTISSLQPEDFATYYCQQSYSSPSTTFGQGTKLEIK
- Cyclic AMP concentration; pTSH 3 ng/mL + 0.01 µg/mL 5C9 [1]: 64.6 pmol/mL
- Cyclic AMP concentration; pTSH 3 ng/mL + 0.1 µg/mL 5C9 [1]: 13.7 pmol/mL
- Cyclic AMP concentration; pTSH 3 ng/mL + 1 µg/mL 5C9 [1]: 4.2 pmol/mL
- Cyclic AMP concentration; pTSH 3 ng/mL + 10 µg/mL 5C9 [1]: 1.3 pmol/mL
- Cyclic AMP concentration; pTSH 3 ng/mL + 100 µg/mL 5C9 [1]: 0.5 pmol/mL
- Cyclic AMP production (constitutive activity); 0.1 µg/mL 5C9 IgG [1]: 68.2 pmol/mL
- Cyclic AMP production (constitutive activity); 0.2 µg/mL 5C9 IgG [1]: 58.8 pmol/mL
- Cyclic AMP production (constitutive activity); 1 µg/mL 5C9 IgG [1]: 31.4 pmol/mL
- Cyclic AMP production (constitutive activity); 2 µg/mL 5C9 IgG [1]: 31.8 pmol/mL
- % Inhibition of M22 IgG (3 ng/mL) stimulation; 0.001 µg/ml 5C9 IgG [2]: 0%
- % Inhibition of M22 IgG (3 ng/mL) stimulation; 0.01 µg/ml 5C9 IgG [2]: 0%
- % Inhibition of M22 IgG (3 ng/mL) stimulation; 0.1 µg/ml 5C9 IgG [2]: 91.2%
- % Inhibition of M22 IgG (3 ng/mL) stimulation; 0.5 µg/ml 5C9 IgG [2]: 97%
- % Inhibition of M22 IgG (3 ng/mL) stimulation; 1 µg/ml 5C9 IgG [2]: 97.6%
- % Inhibition of M22 IgG (3 ng/mL) stimulation; 5 µg/ml 5C9 IgG [2]: 99.4%
- % Inhibition of M22 IgG (3 ng/mL) stimulation; 10 µg/ml 5C9 IgG [2]: 99.1%
- % Inhibition of M22 IgG (3 ng/mL) stimulation; 50 µg/ml 5C9 IgG [2]: 99.1%
- % Inhibition of M22 IgG (3 ng/mL) stimulation; 100 µg/ml 5C9 IgG [2]: 98.8%
- Cyclic AMP concentration; 3 ng/mL M22 IgG + 0.001 µg/ml 5C9 IgG [2]: 39.3 pmol/mL
- Cyclic AMP concentration; 3 ng/mL M22 IgG + 0.01 µg/ml 5C9 IgG [2]: 42.3 pmol/mL
- Cyclic AMP concentration; 3 ng/mL M22 IgG + 0.1 µg/ml 5C9 IgG [2]: 2.9 pmol/mL
- Cyclic AMP concentration; 3 ng/mL M22 IgG + 0.5 µg/ml 5C9 IgG [2]: 1 pmol/mL
- Cyclic AMP concentration; 3 ng/mL M22 IgG + 1 µg/ml 5C9 IgG [2]: 0.8 pmol/mL
- Cyclic AMP concentration; 3 ng/mL M22 IgG + 5 µg/ml 5C9 IgG [2]: 0.2 pmol/mL
- Cyclic AMP concentration; 3 ng/mL M22 IgG + 10 µg/ml 5C9 IgG [2]: 0.3 pmol/mL
- Cyclic AMP concentration; 3 ng/mL M22 IgG + 50 µg/ml 5C9 IgG [2]: 0.3 pmol/mL
- Cyclic AMP concentration; 3 ng/mL M22 IgG + 100 µg/ml 5C9 IgG [2]: 0.4 pmol/mL
- Cyclic AMP concentration; 5C9 IgG 100 µg/mL alone [2]: 0.5 pmol/mL
- % Inhibition; 5C9 IgG 0.003 µg/mL + 3 ng/mL pTSH [3]: 10.4%
- % Inhibition; 5C9 IgG 0.0075 µg/mL + 3 ng/mL pTSH [3]: 76.5%
- % Inhibition; 5C9 IgG 0.01 µg/mL + 3 ng/mL pTSH [3]: 1%
- % Inhibition; 5C9 IgG 0.025 µg/mL + 3 ng/mL pTSH [3]: 26%
- % Inhibition; 5C9 IgG 0.05 µg/mL + 3 ng/mL pTSH [3]: 62.8%
- % Inhibition; 5C9 IgG 0.1 µg/mL + 3 ng/mL pTSH [3]: 81.8%
- % Inhibition; 5C9 IgG 0.3 µg/mL + 3 ng/mL pTSH [3]: 87.5%
- % Inhibition; 5C9 IgG 1 µg/mL + 3 ng/mL pTSH [3]: 92.3%
- % Inhibition; 5C9 IgG 3 µg/mL + 3 ng/mL pTSH [3]: 92.8%
- % Inhibition; T1 serum + 100 µg/mL 5C9 IgG [4]: 98.7%
- % Inhibition; T2 serum + 100 µg/mL 5C9 IgG [4]: 98.2%
- % Inhibition; T3 serum + 100 µg/mL 5C9 IgG [4]: 97.8%
- Cyclic AMP concentration; 100 µg/mL 5C9 IgG alone [4]: 1 pmol/mL
- Cyclic AMP concentration; HBD + 100 µg/mL 5C9 IgG [4]: 0.9 pmol/mL
- Cyclic AMP concentration; T1 serum + 100 µg/mL 5C9 IgG [4]: 1.3 pmol/mL
- Cyclic AMP concentration; T2 serum + 100 µg/mL 5C9 IgG [4]: 1.1 pmol/mL
- Cyclic AMP concentration; T3 serum + 100 µg/mL 5C9 IgG [4]: 1.4 pmol/mL
- % Inhibition of T5 serum stimulation; 0.01 µg/mL 5C9 IgG [5]: 17.2%
- % Inhibition of T5 serum stimulation; 0.1 µg/mL 5C9 IgG [5]: 91.2%
- % Inhibition of T5 serum stimulation; 1 µg/mL 5C9 IgG [5]: 97.8%
- % Inhibition of T5 serum stimulation; 10 µg/mL 5C9 IgG [5]: 98.9%
- % Inhibition of T5 serum stimulation; 100 µg/mL 5C9 IgG [5]: 98.9%
- Cyclic AMP concentration; 0.01 µg/mL 5C9 IgG + T5 [5]: 52.9 pmol/mL
- Cyclic AMP concentration; 0.1 µg/mL 5C9 IgG + T5 [5]: 5.6 pmol/mL
- Cyclic AMP concentration; 1 µg/mL 5C9 IgG + T5 [5]: 1.4 pmol/mL
- Cyclic AMP concentration; 10 µg/mL 5C9 IgG + T5 [5]: 0.7 pmol/mL
- Cyclic AMP concentration; 100 µg/mL 5C9 IgG + T5 [5]: 0.7 pmol/mL
- Cyclic AMP concentration; 100 µg/mL 5C9 IgG alone [5]: 1.1 pmol/mL
- Mean absorbance at 405 nm (absorbance at 405 nm) (TSHR260-AP (human) [6]): 1.12
- Mean absorbance at 405 nm (absorbance at 405 nm) (TSHR260-AP (human) [7]): -0.001
